For the experiment, the target named is T1, aggregated Aβ in plaques of the cerebral cortex of a patient with Alzheimer's disease (human (brain of a patient with …, UniProt P05067 672-713)).
T1 construct: Tissue section fixed in 4% formaldehyde, embedded in paraffin, pre-treated with formic acid; also called neurotic plaques
The experiment can be described thus: immunolabeling of sections of Alzheimer's disease cerebral cortex. An excerpt: A section of the cerebral cortex of the brain of a patient with Alzheimer's disease was fixed in 4% formaldehyde and embedded in paraffin, then pre-treated with formic acid. […] Arrows indicate vessels in the serial sections.

T1 sequence (P05067 672-713): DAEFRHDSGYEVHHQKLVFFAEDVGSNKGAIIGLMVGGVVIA

B1: antibody 4396C (antibody, V domains shown)
VH: EVQLQQSGPELVKTGASVKISCKASGYSFTGYYMHWVKQSHGKSLEWIGYISCYNGATSYNQKFKGKATFTVDTSSSTAYMQFNSLTSEDSAVYYCARGANWVFDYWGQGTTLTVSS
VL: QAVVTQESALTTSPGGTVILTCRSSTGAVTTSNYANWVQEKPDHLFTGLIGGTSNRAPGVPVRFSGSLIGDKAALTITGAQTEDDAMYFCALWYSTHYVFGGGTKVTVLG
B1: the binding result is “no binding”.

For the origin of these results see patent US20040181042A1 (MEDICAL AND BIOLOGICAL LABORATORIES, published 2004).
